The record followed here is patent US20250154263A1 (FEINSTEIN INSTITUTES FOR MEDICAL RESEARCH, published 2025).

The experiment addresses T1, CLECL1 on the cell surface (CLECL1+ CLL PF cells) (human, UniProt Q8IZS7 1-167).
T1 construct: Native CLECL1 on patient CLL cells or the MEC1 CLL line; also called DCAL-1
T1 sequence: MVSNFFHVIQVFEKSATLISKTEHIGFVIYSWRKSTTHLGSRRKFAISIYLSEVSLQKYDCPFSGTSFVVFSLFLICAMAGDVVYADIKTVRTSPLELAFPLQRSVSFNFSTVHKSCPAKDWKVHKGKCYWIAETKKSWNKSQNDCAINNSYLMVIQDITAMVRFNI
The experiment can be described thus: flow cytometry (FIG. 8E; cells not named in the legend). On the technique in general: Flow cytometry measures light scatter and fluorescence of single cells or particles in a stream.

B1: mAb 243.6 (antibody, mouse IgG1, V domains shown)
VH: EVQLQQSGTVLVRSGASVKLSCTASGFNIKEYYIHWVKQRPEQGLEWIAWIDLENGESEYAPKFQGKATLTADTSSNTAYLQLSGLTSEDTAVYYCNAFHGNYAHNYAIDYWGQGTSVTVSQ
VL: DIVMSQSPSSLAVSAGEKVTMTCKSSQSLLNSRTRKNYLAWYQQKPGQSPKLLIYWASTRKSGVPDRFTGSGSGTDFTLTISSVQAEDLAVYYCKQSYNLRTFGGGTKLEIK
notes: also called 243.6.1
On to B1, for which the binding result is given as “binds”.

B2: mAb 17.2 (antibody, mouse IgG1, V domains shown)
VH: EVQLQQSGAELVRSGASVKLSCTTSGFNIKDFYIHWVRQRPEQGLEWIGWIDPKNDDTEYAPRFQGKATVTADTSSNTAYLHLSGLTSEDTAVYYCNGRYPTMDFWGQGTSVT
VL: EIVLTQSPITMTTSPGEKITITCSASSSISSHYLHWYQQKPGFSPKLLIYRASNLASGVPTRFSGSGSGTSYSLTIDTMEAEDVATYFCQQGSSLPLTFGAGTKLELK
notes: also called 17.2.3; hybridoma #17
B2: the binding result was “binds”.
